This is an account of results in paper PMC3904923.

Test [1] concerns the target dansylated calmodulin (rat) (UniProt P0DP30). Briefly: other fluorescence titration; 12.5 nM D-CaM, ligand added incrementally, enhancement of dansyl emission; 25 mM Tris-HCl, 120 mM KCl, 5 mM NaCl, 2 mM MgCl2, 10 mM EGTA, pH 7.4; no free Ca2+; apparent affinity (EC50 of a Hill fit).
Test [2] shares this target. The test can be described thus: other fluorescence titration; 12.5 nM D-CaM, ligand added incrementally, enhancement of dansyl emission; D-CaM binding buffer with 3.9 µM free Ca2+ (9.63 mM Ca2+, 2 mM Mg2+, 10 mM EGTA, pH 7.4); apparent affinity (EC50 of a Hill fit).
Test [3] has as its target Kv7.2 helix B (hB residues S450–S590) (human). The test can be described thus: other fluorescence titration; competition: 12.5 nM D-CaM mixed with helix A (65.6 nM) or helix B (42.6 nM), isolated lobe added incrementally; with Ca2+; one site Hill fit, Kd derived assuming 1:1 binding.
Test [4] shares this target. Briefly: other fluorescence titration; competition: 12.5 nM D-CaM mixed with helix A (46.4 nM) or helix B (20.1 nM), isolated lobe added incrementally; no Ca2+; one site Hill fit, Kd derived assuming 1:1 binding.

As usually defined, the EC50 is the midpoint of the concentration-response curve. In general, IC50 refers to the midpoint of a concentration-inhibition curve. Read a low IC50 as greater potency in that assay. What is called Kd is the equilibrium constant for the complex coming apart. The low end stands for a tighter complex, the high end for a looser complex.

Take “Kv7.2 CaM binding domain (residues 310–548), Q2AB WT (domain or fragment)”: the EC50 in test [1] was 11 nM; in test [2], 27.1 nM.

Take “CaM C-lobe (residues 79–148) (from UniProt P0DP23 80-149) (domain or fragment)”: the figures for the IC50 in test [3] and in test [4] were 244 nM and 238 nM, respectively. Besides, the Kd in test [3] is 229 nM; in test [4] it was 231 nM.

For the substance “CaM N-lobe (residues 1–78) (from UniProt P0DP23 2-79) (domain or fragment)”, in test [3], the IC50 turned out to be 415 nM and the Kd stood at 414 nM. In test [4], this substance came in with an IC50 of 130 nM and an equilibrium dissociation constant (Kd) of 119 nM.

For the substance “Kv7.2 helix B (hB residues S450–S590) (domain or fragment)”, the EC50 in test [1] was found to be 20.1 nM; in test [2] it was 42.6 nM.
